The source of these data is patent US20220251236A1 (Boehringer Ingelheim, published 2022).

Experiment [1] has as its target T1, human DLL3 (endogenous, on SCLC cell lines NCI-H82 and SHP77 and in SCLC tissue) (human, UniProt Q9NYJ7 27-618).
T1 sequence (looked up): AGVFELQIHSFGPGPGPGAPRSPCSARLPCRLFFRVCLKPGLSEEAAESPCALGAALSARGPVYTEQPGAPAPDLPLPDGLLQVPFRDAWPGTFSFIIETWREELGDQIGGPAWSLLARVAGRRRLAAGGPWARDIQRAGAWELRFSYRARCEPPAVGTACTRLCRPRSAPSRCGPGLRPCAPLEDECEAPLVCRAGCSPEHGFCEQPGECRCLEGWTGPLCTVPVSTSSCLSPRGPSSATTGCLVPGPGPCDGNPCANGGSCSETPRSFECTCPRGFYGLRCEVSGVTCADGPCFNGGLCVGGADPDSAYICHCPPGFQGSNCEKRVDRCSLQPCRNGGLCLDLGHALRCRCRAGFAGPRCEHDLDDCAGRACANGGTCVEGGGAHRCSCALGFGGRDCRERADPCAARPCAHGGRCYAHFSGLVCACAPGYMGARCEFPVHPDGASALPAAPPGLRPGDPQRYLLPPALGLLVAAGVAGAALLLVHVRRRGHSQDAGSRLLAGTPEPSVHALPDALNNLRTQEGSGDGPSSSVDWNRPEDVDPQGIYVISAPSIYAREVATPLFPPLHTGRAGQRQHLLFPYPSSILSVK
Description: cell-based or functional assay.

The target of experiment [2] is T1, human DLL3 (endogenous, on SCLC cell …). As to the kind of experiment: cell-based or functional assay. The source holds these as a separate data set.
In experiment [3] the target is T2, FLAG-tagged human DLL4 full length (human, UniProt Q9NR61 1-685).
T2 construct: also called human DLL4 on HEK293 cells
T2 sequence (Q9NR61 other isoform, or with tags, fused parts or gaps limits assumed): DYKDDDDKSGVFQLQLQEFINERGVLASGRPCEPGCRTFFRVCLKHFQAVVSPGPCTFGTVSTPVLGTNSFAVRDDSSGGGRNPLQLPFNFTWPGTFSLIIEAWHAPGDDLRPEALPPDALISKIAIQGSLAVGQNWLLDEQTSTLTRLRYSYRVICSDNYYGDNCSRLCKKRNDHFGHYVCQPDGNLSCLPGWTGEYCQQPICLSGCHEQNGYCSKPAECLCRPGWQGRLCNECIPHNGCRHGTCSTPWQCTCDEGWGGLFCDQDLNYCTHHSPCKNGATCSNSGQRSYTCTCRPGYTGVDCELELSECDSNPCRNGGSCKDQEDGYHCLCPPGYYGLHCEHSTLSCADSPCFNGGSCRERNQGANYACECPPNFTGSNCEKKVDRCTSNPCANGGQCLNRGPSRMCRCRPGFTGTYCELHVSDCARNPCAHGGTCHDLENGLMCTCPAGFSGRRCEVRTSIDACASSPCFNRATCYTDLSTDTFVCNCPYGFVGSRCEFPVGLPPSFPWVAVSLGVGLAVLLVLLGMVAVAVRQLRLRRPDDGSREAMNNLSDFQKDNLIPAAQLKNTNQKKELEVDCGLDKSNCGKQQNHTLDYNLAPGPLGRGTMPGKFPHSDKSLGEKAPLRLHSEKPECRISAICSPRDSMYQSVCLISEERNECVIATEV
As to the kind of experiment: flow cytometry on HEK293 cells expressing human DLL4 (HEK293-huDLL4), PE anti-human secondary, control: secondary antibody only. On the procedure:
Bound molecules were detected with PE-conjugated anti-human secondary antibody (Sigma-Aldrich, #P8047). As negative control, cells were incubated with secondary antibody only. The samples were measured by flow-cytometry.
Background: Flow cytometry measures light scatter and fluorescence of single cells or particles in a stream.

The next experiment concerns the target T3, EGF1+2.
T3 construct: also called Hu DLL3 EGF1+2 on HEK293 cells
T3 membrane-anchored DLL3 subdomain construct: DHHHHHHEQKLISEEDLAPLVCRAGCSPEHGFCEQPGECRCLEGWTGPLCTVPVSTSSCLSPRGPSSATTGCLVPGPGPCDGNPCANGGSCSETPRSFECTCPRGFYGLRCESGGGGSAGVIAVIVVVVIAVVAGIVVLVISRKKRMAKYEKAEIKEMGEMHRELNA
Description: flow cytometry on HEK293 cells expressing the DLL3 subdomain construct, PE anti-human secondary, control: secondary antibody only. The procedure, abridged:
(§1)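 Binders tested on HEK293 cells displaying the DLL3 subdomain construct; bound molecules detected by flow cytometry using PE-conjugated anti-human secondary antibody. Negative control: cells with secondary antibody only.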

The next experiment deals with T4, EGF2+3.
T4 construct: also called Hu DLL3 EGF2+3 on HEK293 cells
T4 membrane-anchored DLL3 subdomain construct: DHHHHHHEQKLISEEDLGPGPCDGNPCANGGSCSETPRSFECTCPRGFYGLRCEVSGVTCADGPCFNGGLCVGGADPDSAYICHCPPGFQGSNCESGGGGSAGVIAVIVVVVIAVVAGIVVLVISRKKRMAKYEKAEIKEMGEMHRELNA
Described as above. A digest of the protocol: as §1

A further experiment has as its target T5, EGF3+4.
T5 construct: also called Hu DLL3 EGF3+4 on HEK293 cells
T5 membrane-anchored DLL3 subdomain construct: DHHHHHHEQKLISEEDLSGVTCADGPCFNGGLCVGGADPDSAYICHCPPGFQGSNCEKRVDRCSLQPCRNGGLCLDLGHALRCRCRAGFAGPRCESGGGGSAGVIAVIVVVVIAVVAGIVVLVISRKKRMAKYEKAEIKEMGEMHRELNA
Described as above. The procedure, abridged:
as §1

The target of the next experiment is T6, EGF4+5.
T6 construct: also called Hu DLL3 EGF4+5 on HEK293 cells
T6 membrane-anchored DLL3 subdomain construct: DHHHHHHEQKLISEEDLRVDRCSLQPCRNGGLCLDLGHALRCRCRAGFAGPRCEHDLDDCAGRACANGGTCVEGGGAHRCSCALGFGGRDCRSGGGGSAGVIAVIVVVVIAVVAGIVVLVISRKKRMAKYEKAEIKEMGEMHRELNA
The experiment is described as above. A digest of the protocol: as §1

In experiment [4] the target is T7, EGF6+MEMBRANE PROXIMAL PEPTIDE.
T7 construct: also called Hu DLL3 EGF6+membrane proximal peptide on HEK293 cells
T7 membrane-anchored DLL3 subdomain construct: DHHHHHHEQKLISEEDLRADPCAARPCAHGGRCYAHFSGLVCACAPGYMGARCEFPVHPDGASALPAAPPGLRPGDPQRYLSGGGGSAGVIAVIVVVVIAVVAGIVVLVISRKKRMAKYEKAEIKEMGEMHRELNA
Description: flow cytometry on HEK293 cells expressing the DLL3 subdomain construct, 1.6 nM binder, PE anti-human secondary, control: secondary antibody only. On the procedure: DLL3/CD3 binding proteins were produced by transient transfection of CHO-E cells with the pTT5 vectors carrying the chain-encoding genes, as described in Example 2. […] Bound molecules were detected with PE-conjugated anti-human secondary antibody (Sigma-Aldrich, #P8047). As negative control, cells were incubated with secondary antibody only.
The samples were measured by flow-cytometry. […] The sequences of the epitope domains are listed in Example 5, Table 3.

Experiment [5] addresses T1, human DLL3 (endogenous, on SCLC cell …). As to the kind of experiment: flow cytometry titration on SHP77 cells, PE anti-human secondary, x-fold over background. The source says: (§2) Cells (T cells or human SCLC cells) were stained with increasing concentrations of two-step purified DLL3/CD3 binding proteins with increasing concentrations in FACS buffer (PBS/0.5% BSA/0.05% sodium azide). Bound molecules were detected with PE-conjugated anti-human secondary antibody (Sigma-Aldrich, #P8047).

The target is the same in experiment [6]. As to the kind of experiment: flow cytometry titration on NCI-H82 cells, PE anti-human secondary, x-fold over background.
Source text: as §2

B1: DLL3#2/CD3#1 (bispecific antibody, human IgG1, kappa, lambda, L234A L235A)
chain 1: DIQMTQSPSAMSASVGDRVTITCRASQGISNYLAWFQQKPGKVPEPLIYAASSLQSGVPSRFSGSGSVTEFTLTISSLQPEDFATYYCLQHNSSPYTFGQGTKLEIKRTVAAPSVFIFPPSDEQLKSGTASVVCLLNNFYPREAKVQWKVDNALQSGNSQESVTEQDSKDSTYSLSSTLTLSKADYEKHKVYACEVTHQGLSSPVTKSFNRGECGGGGSEGKSSGSGSESKSTEGKSSGSGSESKSTGGGGSQVQLVQSGAEVKKPGASVKVSCKASGYTFTSYYMHWVRQAPGQGLEWMGIINPSGGSTSYAQKFQGRVTMTRDTSTSTVYMELSSLRSEDTAVYYCARGEAVGGNYYYYGMDVWGQGTTVTVSSASTKGPSVFPLAPSSKSTSGGTAALGCLVKDYFPEPVTVSWNSGALTSGVHTFPAVLQSSGLYSLSSVVTVPSSSLGTQTYICNVNHKPSNTKVDKRVEPKSCDKTHTCPPCPAPEAAGGPSVFLFPPKPKDTLMISRTPEVTCVVVDVSHEDPEVKFNWYVDGVEVHNAKTKPREEQYNSTYRVVSVLTVLHQDWLNGKEYKCKVSNKALPAPIEKTISKAKGQPREPQVYTLPPSREEMTKNQVSLWCLVKGFYPSDIAVEWESNGQPENNYKTTPPVLDSDGSFFLYSKLTVDKSRWQQGNVFSCSVMHEALHNHYTQKSLSLSPG
chain 2: EAVVTQEPSLTVSPGGTVTLTCRSSTGAVTTSNYANWVQEKPGQLPRGLIGGTNKRAPWVPARFSGSLLGGKAALTLSGAQPEDEAEYFCALWYSNLWVFGGGTKLTVLGQPKAAPSVTLFPPSSEELQANKATLVCLISDFYPGAVKVAWKADGSPVNTGVETTTPSKQSNNKYAASSYLSLTPEQWKSHRSYSCQVTHEGSTVEKTVAPAECSGGGGSEGKSSGSGSESKSTEGKSSGSGSESKSTGGGGSEVQLVESGGGLVQPGGSLKLSCAASGFTFNTYAMNWVRQAPGKGLEWVARIRSKYNNYATYYADSVKDRFTISRDDSKNTAYLQMNNLKTEDTAVYYCVRHGNFGNSYVSWFAYWGQGTLVTVSAASTKGPSVFPLAPSSKSTSGGTAALGCLVKDYFPEPVTVSWNSGALTSGVHTFPAVLQSSGLYSLSSVVTVPSSSLGTQTYICNVNHKPSNTKVDKRVEPKSCDKTHTCPPCPAPEAAGGPSVFLFPPKPKDTLMISRTPEVTCVVVDVSHEDPEVKFNWYVDGVEVHNAKTKPREEQYNSTYRVVSVLTVLHQDWLNGKEYKCKVSNKALPAPIEKTISKAKGQPREPQVYTLPPSREEMTKNQVSLSCAVKGFYPSDIAVEWESNGQPENNYKTTPPVLDSDGSFFLVSKLTVDKSRWQQGNVFSCSVMHEALHNRFTQKSLSLSPG
notes: Heterodimer of one DLL3 chain and one CD3 chain (scFab-Fc, knob-in-hole)
On to B1, for which the “EC90, 72 hour cytotoxicity assay (LDH release), non-stimulated PBMCs as effector cells, NCI-H82 target cells” value in [1] came out at 2.9 nM. Also, the “EC90, 72 hour cytotoxicity assay (LDH release), non-stimulated PBMCs as effector cells, SHP77 target cells” value in experiment [1] was found to be 3.4 nM. Also, the “EC90, 72 hour cytotoxicity assay, purified T cells as effector cells, NCI-H82 target cells” value in [2] turned out to be 1.51 nM. Further, the “EC90, 72 hour cytotoxicity assay, purified T cells as effector cells, SHP77 target cells” value in [2] is 0.16 nM. For the same molecule, the binding result in [3] is on record as “no binding (tested: 1.6 nM)”; with EGF1+2, “no binding (tested: 1.6 nM)”; with EGF2+3, “no binding (tested: 1.6 nM)”; with EGF3+4, “no binding (tested: 1.6 nM)”; with EGF4+5, “no binding (tested: 1.6 nM)”; in [4], “binds”.

B2: DLL3#5/CD3#1 (bispecific antibody, human IgG1, kappa, lambda, L234A L235A)
chain 1: not shown
chain 2: B1 chain 2
notes: as for B1
What is called EC50 (read off the curve) is the concentration that produces a half-maximal response. Turning to B2, the “EC50 (read off the curve)” value in experiment [5] is approximately 1 nM; in experiment [6], approximately 5 nM. The binding result (in [3]; with EGF2+3; with EGF3+4; with EGF4+5) was “no binding (tested: 1.6 nM)” each time.

B3: DLL3#6/CD3#1 (bispecific antibody, human IgG1, kappa, lambda, L234A L235A)
chain 1: DIQLTQSPSFLSTSVGDRVTITCRASQDISNYFAWYQQKPGKAPKLLIYAASTLQSGVPSRFSGGGSGTEFTLTISSLQPEDFATYYCQQLNSYPYTFGQGTKLEIKRTVAAPSVFIFPPSDEQLKSGTASVVCLLNNFYPREAKVQWKVDNALQSGNSQESVTEQDSKDSTYSLSSTLTLSKADYEKHKVYACEVTHQGLSSPVTKSFNRGECGGGGSEGKSSGSGSESKSTEGKSSGSGSESKSTGGGGSQVQLQESGPGLVKPSETLSLTCTVSGGSISSYFWSWIRQPAGKGLEWIGRIYTSGSTNYNPSLNSRLTMSVDTSKNQFSLKLSSVTAADTAVYYCARRGDWGGFDIWGQGTVVTVSSASTKGPSVFPLAPSSKSTSGGTAALGCLVKDYFPEPVTVSWNSGALTSGVHTFPAVLQSSGLYSLSSVVTVPSSSLGTQTYICNVNHKPSNTKVDKRVEPKSCDKTHTCPPCPAPEAAGGPSVFLFPPKPKDTLMISRTPEVTCVVVDVSHEDPEVKFNWYVDGVEVHNAKTKPREEQYNSTYRVVSVLTVLHQDWLNGKEYKCKVSNKALPAPIEKTISKAKGQPREPQVYTLPPSREEMTKNQVSLWCLVKGFYPSDIAVEWESNGQPENNYKTTPPVLDSDGSFFLYSKLTVDKSRWQQGNVFSCSVMHEALHNHYTQKSLSLSPG
chain 2: B1 chain 2
notes: as for B1
For B3, the half-maximal effective concentration (EC50 (read off the curve)) in [5] was approximately 2 nM. Also, the binding result (in experiment [3]; in the experiment with EGF1+2; with EGF2+3; with EGF3+4; with EGF4+5) was “no binding (tested: 1.6 nM)” in each case.

B4: DLL3#4/CD3#1 (bispecific antibody, human IgG1, kappa, lambda, L234A L235A)
chain 1: not shown
chain 2: B1 chain 2
notes: as for B1
As for B4, the “EC50 (read off the curve)” value in [5] is approximately 0.3 nM; in experiment [6] it was approximately 1 nM. Further, the binding result (in [3]; in the experiment with EGF1+2; with EGF2+3) was “no binding (tested: 1.6 nM)” in each case.
